Assay [1] concerns the target Bunyamwera virus Gn–Gc glycoprotein heterodimer (protomer of the membrane-bound glycoprotein spike) (Bunyamwera virus). Nature of the assay: cryo-EM structure; electron cryo-tomography and sub-tomogram averaging of about 2,000 spikes on purified BUNV virions vitrified at pH 7.4; 3.0 nm resolution; three-fold symmetry seen without imposing it; validated by single particle averaging of spike side views.

Assay [2] deals with Bunyamwera virus Gc glycoprotein (Bunyamwera virus) (UniProt P04505). The assay is described as above.

Our source for the stoichiometry N values is paper PMC3656102.

As for “Bunyamwera virus Gn–Gc glycoprotein heterodimer (protomer of the membrane-bound glycoprotein spike) (complex)”, in assay [1], the stoichiometry N worked out at 3. As to “Bunyamwera virus Gc glycoprotein (from UniProt P04505 478-1433) (natural protein)”, the stoichiometry N in assay [2] amounted to 3.
